This is an account of results in US20220259593A1, “CONTROL OF MAMMALIAN GENE DOSAGE USING CRISPR” (The Regents of the University of California, priority 2019, published 2022).

First the molecules themselves.
B1: cr356 (nucleic acid)
guide: GTTTAAGAGCTAAGCTGGAAACAGCATAGCAAGTTTAAATAAGGCTAGTCCGTTATCACCTTGAAAAAGGGACACCGAGTCGGTGTT
modifications: listed as DNA, chemistry not fully specified
B2: cr687 (nucleic acid)
guide: GTTTAAGAGCTAAGCTGGAAACAGCATAGCAAGTTTAAATAAGGCTAGTCCGTTATCAACTTGAAAAAGTGGCACTGAGTCGGTGCT
modifications: listed as DNA, chemistry not fully specified
B3: cr756 (nucleic acid)
guide: GTTTAAGAGCTAAGCTGGAAACAGCATAGCAAGTTTAAATAAGGTTAATCCGTTATCAACTTGAAAAAGTGGCAACGAGTCGTTGCT
modifications: listed as DNA, chemistry not fully specified
B4: cr804 (nucleic acid)
guide: GTTTAAGAGCTAAGCTGGAAACAGCATAGCAAGCTTAAATAAGGCTAGTCCGTTATCAACTTGAAAAAGTGACACCGAGTCGGTGTT
modifications: listed as DNA, chemistry not fully specified
B5: cr545 (nucleic acid)
guide: GTTTAAGAGCTAAGCTGGAAACAGCATAACAAGTTTAAATAAGGCTAGTCCGTCATAAACTTGAAAAAGTGGCACCGAGTCGGTGCT
modifications: listed as DNA, chemistry not fully specified
B6: cr473 (nucleic acid)
guide: GTTTAAGAGCTAAGCTGGAAACAGCATAGCAAGTTTAAATAAGGCTAGTCCGATATAAACTTGCAAAAGTGGCACCGAGTCGGTGCT
modifications: listed as DNA, chemistry not fully specified
B7: cr924 (nucleic acid)
guide: GTTTAAGAGCTAAGCTGGAAACAGCATAGCAAGTTTAAATAAAGCTAGTCTGTTATCAACTTGAAAAAGTGGCGCCGAGTCGGCGCT
modifications: listed as DNA, chemistry not fully specified
B8: cr201 (nucleic acid)
guide: GTTTAAGAGCTAAGCTGGAAACAGCATAGCAAGTTTAAATAAAGCTAGTCTGTTATCAACTTGAAAAAGTGGCACCGAGTCGGTGCT
modifications: listed as DNA, chemistry not fully specified
B9: cr895 (nucleic acid)
guide: GTTTAAGAGCTAAGCTGGAAACAGCATAGCAATTTTAAATAAGGCTAGTCCGTTATCAACTTGTAAAAGTGGCACCGAGTCGGTGCT
modifications: listed as DNA, chemistry not fully specified
B10: cr398 (nucleic acid)
guide: GTTTAAGAGCTAAGCTGGAAACAGCATAGCAAGTTTGAATAAGGCTAGTCCGTTATCAACTTGAAAAAGTGGCACCGAGTCGGTGCT
modifications: listed as DNA, chemistry not fully specified
B11: cr127 (nucleic acid)
guide: GTTTAAGAGCTAAGCTGGAAACAGCATAGCAAGTTTAAATATGGCTAGTCCGTTATCAACTTGAGAAAGTGGCACCGACTCGGTGCT
modifications: listed as DNA, chemistry not fully specified
B12: cr966 (nucleic acid)
guide: GTTTAAGAGCTAAGCTGGAAACAGCATAGCAAGTTTAAATAAGGCTAGTCCGTTATCAAGTTGAAAAACTGGCATGGAGTCCATGCT
modifications: listed as DNA, chemistry not fully specified
B13: cr249 (nucleic acid)
guide: GTTTAAGAGCTAAGCTGGAAACAGCATAGCAAGTTTAAATAAGGCTAGTCCGTGATTAACTTGAAAAAGTGGCACCGAGACGGTGCT
modifications: listed as DNA, chemistry not fully specified
B14: cr296 (nucleic acid)
guide: GTTTAAGAGCTAAGCTGGAAACAGCATAGCAAGTTTAAATAAGGCTAGTCCGTTATCAACTTGAAAAAGTGGTACGCAGTGCGTACT
modifications: listed as DNA, chemistry not fully specified
B15: cr404 (nucleic acid)
guide: GTTTAAGAGCTAAGCTGGAAACAGCATAGCAAGTTTAAATAAGGCTAGTCCGTTATCCACTTGATAAAGTGGCACCGAGTCGGTGCT
modifications: listed as DNA, chemistry not fully specified
B16: cr432 (nucleic acid)
guide: GTTTAAGAGCTAAGCTGGAAACAGCATAGCAAGCTTAAATAAGGCTAGTCCGTTATCAAGTTGAAAAACTGGCACCGAGTCGGTGCT
modifications: listed as DNA, chemistry not fully specified
B17: cr196 (nucleic acid)
guide: GTTTAAGAGCTAAGCTGGAAACAGCATAGCAAGTTTAAATAAGGCTAGTCCGTTATCAACTTGAAAAAGTGGCAGCCAGTGGCTGCT
modifications: listed as DNA, chemistry not fully specified
B18: cr343 (nucleic acid)
guide: GTTTAAGAGCTAAGCTGGAAACAGCATAGCAAGTTTAAATAAGGCTAGTCCGTTATCATGAAGAAAATGAGGCACCGAGTCGGTGCT
modifications: listed as DNA, chemistry not fully specified
B19: cr569 (nucleic acid)
guide: GTTTAAGAGCTAAGCTGGAAACAGCATGGCAAGTTTAAATAAGGCTCGTCCGTTATGAACTTGAAAAAGTGGCACCGAGTCGGTGCT
modifications: listed as DNA, chemistry not fully specified
B20: cr003 (nucleic acid)
guide: TTTTAAGAGCTAAGCTGGAAACAGCATAGCAAGTTTAAATAAGGCTAGTCCGTTATCAACTTGAAAAAGTGGCACCGAGTCGGTGCT
modifications: listed as DNA, chemistry not fully specified
B21: cr459 (nucleic acid)
guide: GTTTAAGAGCTAAGCTGGAAACAGCATAGCGAGTTTAAATAAGGCTAGTCCGTTATCTACTTGAAAAAGTGGCACCGAGTCGGTGCT
modifications: listed as DNA, chemistry not fully specified
B22: cr813 (nucleic acid)
guide: GTTTAAGAGCTAAGCTGGAAACAGCATAGCAAGTTTAAATAAGGCTAGTCCGTTATCTACTTGAAAAAGTGGCACCGAGTCGGTGCT
modifications: listed as DNA, chemistry not fully specified
B23: cr088 (nucleic acid)
guide: ATTTAGGAGCTAAGCTGGAAACAGCATAGCAAGTTTAAATAAGGCTAGTCCGTTATCAACTTGAAAAAGTGGCACCGAGTCGGTGCT
modifications: listed as DNA, chemistry not fully specified
B24: cr755 (nucleic acid)
guide: GTTTAAGAGCTAAGCTGGAAACAGCATAGCAAGCTTAAATAAGGCTAGTCCGTTATCAACTTGAAAAAGTGGCTCCGAGTCGGAGCT
modifications: listed as DNA, chemistry not fully specified
B25: cr856 (nucleic acid)
guide: GTTTAAGAGCTAAGCTGGAAACAGCATAGCAAGTTTAAATAAGGATATTCCGTTATCAAATTGAAAAATTGGCTCCGAGTCGGAGCT
modifications: listed as DNA, chemistry not fully specified
B26: cr315 (nucleic acid)
guide: GTTTAAGAGCTAAGCTGGAAACAGCATAGCAAGTTTAAATAAAGCTAGTCTGTTATCAACTGGAAACAGTGGCCCCGAGTCGGGGCT
modifications: listed as DNA, chemistry not fully specified
B27: cr527 (nucleic acid)
guide: GTTTAAGAGCTAAGCTGGAAACAGCATAGCAAGTGTAAATAAGGCTAGTCCGTTATCAACTTGAAAAAGTGGCACCGAGTCGGTGCT
modifications: listed as DNA, chemistry not fully specified
B28: cr523 (nucleic acid)
guide: GTTTAAGAGCTAAGCTGGAAACAGCATAGCAAGCTTAAATAAGGCTAGTCCGTTATCAACTTGAAAAAGTGTCACCGAGTCGGTGAT
modifications: listed as DNA, chemistry not fully specified
B29: cr200 (nucleic acid)
guide: GTTTAAGAGCTAAGCTGGAAACAGCATAGCAAATTTAAATAAGGCTAGTCCGTTATCAACTTGAAAAAGTGGCACCGAGTCGGTGCC
modifications: listed as DNA, chemistry not fully specified

One data set concerns K562 CRISPRi cells. The experiment in a line: Constant region variant library pooled growth screen, K562. The note with it: sgRNA constant region variants; activity relative to the original, un-modified constant region cr995. In kind it is cell-based, human. In a few lines:
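Cells were selected with puromycin for 2 days and then kept in RPMI-1640 spinner cultures, with duplicates handled separately. Targeting sequences comprised 3 sgRNAs per essential gene for 10 genes plus six non-targeting controls. Activities were normalized against pairing with the unmodified scaffold.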
Regarding B1, the Mean relative activity stood at 1.042.

B2 gave a Mean relative activity of 1.042.

B3 registered a Mean relative activity of 1.041.

The same data set, now with this note: sgRNA constant region variants; relative to the original, un-modified constant region cr995; CRISPRi.
For the molecule B4, the Mean relative activity came out at 0.4025. Still for that read-out and setting: as for B5, the figure is 0.3936; as for B6, 0.3892. Same read-out and setting: with B7 the figure was 0.3638; with B8, 0.3731. Still for that read-out and setting: with B9 the figure was 0.3709; with B10, 0.3667; with B11, 0.3659. As for B12, the Mean relative activity is recorded as 0.3699. As to B13, the Mean relative activity was found to be 0.3886. As to B14, the Mean relative activity stood at 0.3911. B15 gave a Mean relative activity of 0.3784. On the same count and under the same terms, with B16 the figure was 0.3923; with B17, 0.3626. Same read-out and setting: with B18 the figure was 0.3733; with B19, 0.3992. The same measure, in the same setting: as for B20, the figure is 0.3678. B21 had a Mean relative activity of 0.3837.

Molecule B22 showed a Mean relative activity of 0.3803.

Regarding B23, the Mean relative activity is on record as 0.3745. Still for that read-out and setting: as for B24, the figure is 0.3814. As for B25, the Mean relative activity is 0.3826. Molecule B26 had a Mean relative activity of 0.3642. With B27, the Mean relative activity is 0.3802. With B28, the Mean relative activity is on record as 0.3746. Regarding B29, the Mean relative activity was determined as 0.3799.
